{"source": "paper PMC9381557", "origin": "cited, not measured here", "molecular_target": "RAGE V domain (Homo sapiens) (UniProt Q15109)", "sequence (Q15109 23-116)": "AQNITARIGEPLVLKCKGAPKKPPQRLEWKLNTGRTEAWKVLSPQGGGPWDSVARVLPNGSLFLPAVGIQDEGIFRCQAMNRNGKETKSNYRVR", "data": [{"substance": "S100P (from UniProt P25815)", "values": [{"measurement": "Kd", "result": 6.8, "unit": "µM"}]}]}
